The target in the experiment is T1, fusion protein of CD25 and the Fc-part of IgG (human, UniProt P01589 22-240, limits assumed).
T1 construct: also called rhuIL-2R alpha; rhuIL-2R
T1 sequence: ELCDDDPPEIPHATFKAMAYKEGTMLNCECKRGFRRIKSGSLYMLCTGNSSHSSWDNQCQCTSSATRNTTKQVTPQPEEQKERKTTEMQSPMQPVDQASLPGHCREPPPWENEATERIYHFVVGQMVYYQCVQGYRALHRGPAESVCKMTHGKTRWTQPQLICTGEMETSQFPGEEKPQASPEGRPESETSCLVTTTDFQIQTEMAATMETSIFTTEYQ
The experiment is described as follows: ELISA, CD25-Fc on protein G coated plates, biotinylated IL-2 with or without P3028. (In an ELISA, binding on a coated surface is turned into a signal by an enzyme label.)

We go through 1 molecule from patent US20170298096A1 (CANIMGUIDE THERAPEUTICS, published 2017).

B1: P3028 (peptide)
peptide: VFDEFKPLVEEPQNLIK
With B1, the binding result is “binds”.
